US9751918B2, “Transgenic plants expressing cobalamin binding proteins” (XERAGENX LLC, priority 2001, dated 2017)

B1: rhTC: Recombinant human transcobalamin extracted from transgenic Arabidopsis thaliana plants (mature sequence SEQ ID NO:11) (protein)
chain: EMCEIPEMDSHLVEKLGQHLLPWMDRLSLEHLNPSIYVGLRLSSLQAGTKEDLYLHSLKLGYQQCLLGSAFSEDDGDCQGKPSMGQLALYLLALRANCEFVRGHKGDRLVSQLKWFLEDEKRAIGHDHKGHPHTSYYQYGLGILALCLHQKRVHDSVVDKLLYAVEPFHQGHHSVDTAAMAGLAFTCLKRSNFNPGRRQRITMAIRTVREEILKAQTPEGHFGNVYSTPLALQFLMTSPMPGAELGTACLKARVALLASLQDGAFQNALMISQLLPVLNHKTYIDLIFPDCLAPRVMLEPAAETIPQTQEIISVTLQVLSLLPPYRQSISVLAGSTVEDVLKKAHELGGFTYETQASLSGPYLTSVMGKAAGEREFWQLLRDPNTPLLQGIADYRPKDGETIELRLVSW
modifications: plant-expressed; homo sapiens

Legend:
[1] = Competitive binding of 57Co-labelled cobalamin versus unlabelled cobalamin; conditions: 57Co-cobalamin mixed with increasing non-radioactive cobalamin, bound fraction by gamma counter
Protocol: (§1) Equal amounts of the respective proteins were added to a mixture containing a fixed amount of cobalt (57Co) labelled cobalamin mixed with increasing amounts of non-radioactive cobalamin or cobinamide (X axis). Free and bound ligand were separated and the amount of 57Co attached to the protein was measured in a gamma counter. The 57Co fraction bound relative to the amount of 57Co bound in the absence of unlabeled cobalamin or cobinamide was calculated (Y axis).
as §1, with “Both recombinant proteins were extracted form transgenic Arabidopsis thaliana plants. Equal” for “Equal”, “(57Co) labeled” for “(57Co) labelled”, “of nonradioactive” for “of non-radioactive”, “ligand was” for “ligand were”, “of unlabelled” for “of unlabeled”
(§2) One kilogram of three week old IF-plants was homogenization with 2 liters of phosphate buffer and clarified by centrifugation. This extract contained 100 mg recombinant human IF with CBC. This IF had specificity for cobalamin binding whereas the analog cobinamid was not bound by the IF as tested by the method described by (15).

[2] = target: human intestinal receptor protein cubilin (Homo sapiens, UniProt O60494); experiment: BIAcore 2000 binding of intrinsic factor to immobilized cubilin; conditions: for binding to cubilin, holo-form: intrinsic factor saturated with vitamin B12 (holo-form); for binding to cubilin, apo-form: intrinsic factor unsaturated with vitamin B12 (apo-form)
Protocol: The binding between intrinsic factor and its receptor cubilin was analysed employing a BIAcore 2000 instrument (Biacore AB, Uppsala, Sweden). An increase in Resp. Diff. (Y axis) indicates binding between intrinsic factor and cubilin. At time approximately 100 a solution with intrinsic factor is added to the immobilized cubilin. Intrinsic factor was isolated from transgenic plants, human gastric juice and hog stomach. Preparations of vitamin B 12 saturated and vitamin B12 unsaturated intrinsic factor were used. At time approximately 600 intrinsic factor is removed from the solution and the dissociation between cubilin and intrinsic factor is followed.

[3] = Competitive binding of 57Co-labelled cobalamin versus unlabelled cobinamide; conditions: 57Co-cobalamin mixed with increasing non-radioactive cobinamide; bound fraction by gamma counter
Protocol: as §1
as §1, with “Both recombinant proteins were extracted form transgenic Arabidopsis thaliana plants. Equal” for “Equal”, “(57Co) labeled” for “(57Co) labelled”, “of nonradioactive” for “of non-radioactive”, “ligand was” for “ligand were”, “of unlabelled” for “of unlabeled”
as §2

[4] = listed as recombinant intrinsic factor
[5] = listed as native intrinsic factor

Chain of human intestinal receptor protein cubilin (O60494 36-3623): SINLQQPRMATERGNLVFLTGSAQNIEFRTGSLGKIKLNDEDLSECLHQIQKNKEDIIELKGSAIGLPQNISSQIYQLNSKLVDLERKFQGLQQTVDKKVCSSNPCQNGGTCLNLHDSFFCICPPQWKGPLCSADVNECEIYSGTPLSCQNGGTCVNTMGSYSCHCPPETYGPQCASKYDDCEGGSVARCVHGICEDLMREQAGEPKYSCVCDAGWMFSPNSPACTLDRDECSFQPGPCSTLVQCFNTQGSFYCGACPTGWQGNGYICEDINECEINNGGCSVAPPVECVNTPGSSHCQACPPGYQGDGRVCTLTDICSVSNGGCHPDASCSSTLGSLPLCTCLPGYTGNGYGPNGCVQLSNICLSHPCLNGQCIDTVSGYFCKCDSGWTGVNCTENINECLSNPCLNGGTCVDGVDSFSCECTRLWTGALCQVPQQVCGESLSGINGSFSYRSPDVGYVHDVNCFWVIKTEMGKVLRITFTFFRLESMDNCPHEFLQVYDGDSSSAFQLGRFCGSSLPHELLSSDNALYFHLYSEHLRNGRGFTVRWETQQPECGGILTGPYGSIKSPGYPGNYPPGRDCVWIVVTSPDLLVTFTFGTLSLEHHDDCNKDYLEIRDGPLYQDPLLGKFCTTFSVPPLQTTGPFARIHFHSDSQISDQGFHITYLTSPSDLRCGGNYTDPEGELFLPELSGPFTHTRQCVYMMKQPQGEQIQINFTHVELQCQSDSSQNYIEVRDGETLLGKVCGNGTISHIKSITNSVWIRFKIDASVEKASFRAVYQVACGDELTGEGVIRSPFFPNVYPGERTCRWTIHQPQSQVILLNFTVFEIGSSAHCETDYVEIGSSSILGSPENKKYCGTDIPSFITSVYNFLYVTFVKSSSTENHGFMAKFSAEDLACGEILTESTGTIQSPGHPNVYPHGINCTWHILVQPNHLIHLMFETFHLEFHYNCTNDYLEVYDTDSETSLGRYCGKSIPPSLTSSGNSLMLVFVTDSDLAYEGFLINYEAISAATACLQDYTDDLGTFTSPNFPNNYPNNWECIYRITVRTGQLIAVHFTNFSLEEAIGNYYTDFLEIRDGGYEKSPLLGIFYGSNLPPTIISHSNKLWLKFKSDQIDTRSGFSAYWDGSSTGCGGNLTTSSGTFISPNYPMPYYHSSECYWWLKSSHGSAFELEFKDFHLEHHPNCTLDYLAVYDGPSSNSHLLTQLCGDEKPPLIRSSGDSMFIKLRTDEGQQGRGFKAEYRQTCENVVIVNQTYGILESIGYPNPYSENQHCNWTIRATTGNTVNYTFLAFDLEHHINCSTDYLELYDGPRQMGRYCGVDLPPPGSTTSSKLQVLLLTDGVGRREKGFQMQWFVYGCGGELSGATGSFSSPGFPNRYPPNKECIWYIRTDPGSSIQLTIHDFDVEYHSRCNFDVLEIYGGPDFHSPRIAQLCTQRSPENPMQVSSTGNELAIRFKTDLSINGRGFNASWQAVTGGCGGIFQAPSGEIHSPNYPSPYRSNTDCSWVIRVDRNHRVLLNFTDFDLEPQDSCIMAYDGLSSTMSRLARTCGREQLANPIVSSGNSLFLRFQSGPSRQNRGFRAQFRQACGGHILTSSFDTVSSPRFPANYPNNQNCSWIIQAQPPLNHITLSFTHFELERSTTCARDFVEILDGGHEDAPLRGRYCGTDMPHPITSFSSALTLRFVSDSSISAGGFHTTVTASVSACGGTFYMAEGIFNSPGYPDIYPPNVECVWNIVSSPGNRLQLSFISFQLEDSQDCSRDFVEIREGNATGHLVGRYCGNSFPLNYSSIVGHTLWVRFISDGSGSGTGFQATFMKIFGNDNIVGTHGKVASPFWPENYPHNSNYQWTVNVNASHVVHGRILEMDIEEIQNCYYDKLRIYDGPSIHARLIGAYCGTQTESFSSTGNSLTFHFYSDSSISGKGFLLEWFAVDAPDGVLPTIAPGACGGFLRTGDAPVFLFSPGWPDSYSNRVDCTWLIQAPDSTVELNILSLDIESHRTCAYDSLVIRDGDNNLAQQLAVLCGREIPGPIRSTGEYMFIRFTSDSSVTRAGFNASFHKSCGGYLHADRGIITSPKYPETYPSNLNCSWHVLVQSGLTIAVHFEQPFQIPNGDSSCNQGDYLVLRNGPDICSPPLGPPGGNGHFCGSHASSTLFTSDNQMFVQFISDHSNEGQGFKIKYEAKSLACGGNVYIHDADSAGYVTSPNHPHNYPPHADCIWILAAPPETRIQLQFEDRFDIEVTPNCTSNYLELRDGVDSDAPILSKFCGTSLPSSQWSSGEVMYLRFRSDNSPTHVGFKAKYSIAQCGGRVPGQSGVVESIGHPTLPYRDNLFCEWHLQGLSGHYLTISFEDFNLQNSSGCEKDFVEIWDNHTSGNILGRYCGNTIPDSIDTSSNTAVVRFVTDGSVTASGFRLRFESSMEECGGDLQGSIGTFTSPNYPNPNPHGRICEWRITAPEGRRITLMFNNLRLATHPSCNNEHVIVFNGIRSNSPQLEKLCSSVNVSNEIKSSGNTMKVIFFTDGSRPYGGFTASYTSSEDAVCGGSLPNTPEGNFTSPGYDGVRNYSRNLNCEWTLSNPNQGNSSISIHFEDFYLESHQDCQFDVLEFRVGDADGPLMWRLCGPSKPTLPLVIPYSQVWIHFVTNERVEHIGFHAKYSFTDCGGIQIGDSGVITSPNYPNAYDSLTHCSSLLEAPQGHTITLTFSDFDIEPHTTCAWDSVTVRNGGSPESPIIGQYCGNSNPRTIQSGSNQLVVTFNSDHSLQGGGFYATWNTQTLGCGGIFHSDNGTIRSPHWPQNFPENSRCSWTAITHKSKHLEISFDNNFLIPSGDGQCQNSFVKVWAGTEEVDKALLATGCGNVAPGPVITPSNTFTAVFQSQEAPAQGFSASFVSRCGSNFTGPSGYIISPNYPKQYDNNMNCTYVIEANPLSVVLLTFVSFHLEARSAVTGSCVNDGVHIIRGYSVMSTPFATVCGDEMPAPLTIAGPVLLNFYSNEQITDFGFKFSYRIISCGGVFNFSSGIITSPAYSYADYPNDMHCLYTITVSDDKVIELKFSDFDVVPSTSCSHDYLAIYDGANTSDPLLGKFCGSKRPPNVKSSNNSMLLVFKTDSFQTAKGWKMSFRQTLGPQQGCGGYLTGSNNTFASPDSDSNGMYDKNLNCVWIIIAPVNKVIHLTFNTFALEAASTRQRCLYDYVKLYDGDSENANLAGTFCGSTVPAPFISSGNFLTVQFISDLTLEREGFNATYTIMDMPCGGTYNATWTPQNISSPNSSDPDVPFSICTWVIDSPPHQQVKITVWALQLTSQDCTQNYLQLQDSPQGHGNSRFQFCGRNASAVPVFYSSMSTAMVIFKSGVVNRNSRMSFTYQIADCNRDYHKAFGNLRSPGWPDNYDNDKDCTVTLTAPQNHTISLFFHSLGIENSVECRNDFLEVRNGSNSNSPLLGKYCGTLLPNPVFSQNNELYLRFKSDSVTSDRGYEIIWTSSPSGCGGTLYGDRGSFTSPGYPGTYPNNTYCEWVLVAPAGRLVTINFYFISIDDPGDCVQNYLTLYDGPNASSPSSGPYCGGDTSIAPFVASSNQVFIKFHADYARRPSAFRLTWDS
Chain of human intestinal receptor protein cubilin (P27352 19-417 partner): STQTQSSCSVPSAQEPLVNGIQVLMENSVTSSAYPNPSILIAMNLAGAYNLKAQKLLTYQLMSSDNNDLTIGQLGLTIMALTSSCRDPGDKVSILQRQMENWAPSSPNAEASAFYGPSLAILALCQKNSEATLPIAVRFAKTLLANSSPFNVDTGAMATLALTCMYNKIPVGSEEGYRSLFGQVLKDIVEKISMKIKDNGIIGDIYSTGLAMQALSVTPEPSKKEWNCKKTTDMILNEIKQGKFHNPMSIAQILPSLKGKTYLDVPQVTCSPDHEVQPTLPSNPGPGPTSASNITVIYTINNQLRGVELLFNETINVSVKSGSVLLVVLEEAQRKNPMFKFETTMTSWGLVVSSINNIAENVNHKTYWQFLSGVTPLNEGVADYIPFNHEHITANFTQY

Row | Molecule | ability to bind cobalamin [1] | ability to bind cobalamin ([1]; listed as recombinant IF) | ability to bind cobalamin ([1]; listed as recombinant human intrinsic factor) | binding to cubilin, holo-form [2] | binding to cubilin, holo-form [2, 4] | binding to cubilin, apo-form [2] | binding to cubilin, apo-form [2, 4] | ability to bind cobinamid [3] | ability to bind cobalamin ([1]; listed as native IF) | binding to cubilin, holo-form ([2]; listed as human gastric IF) | binding to cubilin, holo-form [2, 5] | binding to cubilin, apo-form ([2]; listed as human gastric IF) | binding to cubilin, apo-form [2, 5] | ability to bind cobalamin ([1]; listed as recombinant human transcobalamin)
1 | rhIF from plants: Recombinant human intrinsic factor extracted from transgenic Arabidopsis thaliana plants (mature sequence SEQ ID NO:4) | specificity for binding Cbl | specificity for binding cobalamin | bind cobalamin | binds | binds to cubilin | does not bind | only when saturated with vitamin B12 | not cobinamid |  |  |  |  |  | 
2 | native human gastric IF: Native intrinsic factor present in / isolated from human gastric juice, used for comparison [reference compound] | specificity for binding Cbl |  |  |  |  |  |  | not cobinamid | specificity for binding cobalamin | bind to the cubulin receptor | binds to cubilin | only when in holo-form | only when saturated with vitamin B12 | 
3 | B1 | binds to Cbl |  |  |  |  |  |  | not cobinamid |  |  |  |  |  | bind cobalamin
